Key:
[1] = biological target: T1, human BCMA on cells (HEK293T/huBCMA; NCI-H929) (human, UniProt Q02223 1-184); experiment: cell-based or functional assay
T1 sequence (looked up): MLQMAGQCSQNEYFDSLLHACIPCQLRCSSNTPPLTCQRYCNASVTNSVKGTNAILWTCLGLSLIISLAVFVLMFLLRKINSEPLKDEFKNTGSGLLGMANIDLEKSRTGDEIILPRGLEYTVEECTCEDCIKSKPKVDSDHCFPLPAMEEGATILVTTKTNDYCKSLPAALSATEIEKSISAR

[2] = biological target: T2, human BCMA-Fc, Avitag recombinant protein (ACRO, Cat. BC7-H82F0) (human, UniProt Q02223 1-54); experiment: Biacore, antigen coupled to a CM5 chip, PR003178 injected at 12-0.375 nM, 1:1 kinetic fit [E]
T2 construct: extracellular domain; Bought reagent; amine-coupled to the CM5 chip in the Biacore assay; also called recombinant human BCMA-ECD-Fc; human BCMA recombinant protein; not shown: Fc and Avitag of the bought protein
T2 sequence (looked up): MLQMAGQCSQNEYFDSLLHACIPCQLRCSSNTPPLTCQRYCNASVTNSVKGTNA
Method: (§1) Human BCMA-Fc, Avitag recombinant protein (ACRO, Cat. BC7-H82F0), cynomolgus monkey BCMA-Fc, Avitag (ACRO, Cat. BCA-C82F4) were purchased from ACRO, human CD3e/g ECD-hFc recombinant protein (Lot.20190508002), cynomolgus monkey CD3e/g ECD-hFc recombinant protein and human (Lot.2018040001) were purchased from ChemPartner.
(§2) The flow rate was set as 10 μl/min and four antigens were coupled on four channels on two CMS: 1) the injection time was set as 300 s, and 50 mM of NHS and 200 mM of EDC were freshly mixed at 1:1 volume ratio and injected into four channels; 2) human BCMA-Fc, Avitag recombinant protein, cynomolgus monkey BCMA-FC, Avitag, human CD3e/g ECD-hFc recombinant protein and cynomolgus CD3e/g ECD-hFc recombinant protein were all diluted to 1 μg/ml with sodium acetate (Cat# BR-1003-50) (pH 4.5), and injected into channel 2, 3 and 4 of chip 1 and channel 2 of chip 2, respectively; 3) 1 M of ethanolamine (pH8.5) was injected for 300 s to block the remaining active carboxyl groups on the chips surface. After blockage, the instrument was continued to be equilibrated with 1 ×HBS- EP+buffer for two hours. The final coupling amounts of human BCMA-Fc, Avitag recombinant protein, cynomolgus monkey BCMA-Fc, Avitag, human CD3e/g ECD-hFc recombinant protein and cynomolgus monkey CD3e/g ECD-hFc recombinant protein were 120 RU, 70 RU, 200 RU and 290 RU, respectively.
(§3) A multi-cycle kinetic mode was set, and each cycle included the binding of PRO03178 as well as the regeneration of the chip. PRO03178 with two-fold gradient dilution was injected into four channels at a flow rate of 30 μl/min. A binding time of 180 s and a dissociation time of 400 s or 600s were set. Finally, 10 mM of glycine-hydrochloric acid (pH 1.5) (GE Life Sciences, Cat# BR-1003-54) was injected at the same flow rate for 60 s to regenerate the chip.

[3] = biological target: T3, human CD3e/g ECD-hFc recombinant protein (human, UniProt P07766 23-126; P09693 23-116); experiment: as above
T3 construct: extracellular domain; Bought from ChemPartner; not shown: human Fc
T3 sequence (P07766 23-126, chain 1 of 2): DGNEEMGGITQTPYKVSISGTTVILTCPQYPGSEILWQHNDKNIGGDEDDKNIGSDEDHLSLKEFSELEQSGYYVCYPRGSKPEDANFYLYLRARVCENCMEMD
T3 sequence (P09693 23-116, chain 2 of 2): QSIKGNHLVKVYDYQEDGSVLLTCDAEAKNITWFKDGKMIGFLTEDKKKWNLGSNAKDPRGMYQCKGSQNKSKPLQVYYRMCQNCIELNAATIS
Method: as §1, §2, §3

[4] = biological target: T4, cynomolgus monkey BCMA on cells (HEK293T/cynoBCMA) (cynomolgus monkey, UniProt A0A2K5UD97 1-183); experiment: FACS on HEK293T cell strain overexpressing cynomolgus monkey BCMA [C]
T4 construct: whole, on cells
T4 sequence (A0A2K5UD97 entry or part of it): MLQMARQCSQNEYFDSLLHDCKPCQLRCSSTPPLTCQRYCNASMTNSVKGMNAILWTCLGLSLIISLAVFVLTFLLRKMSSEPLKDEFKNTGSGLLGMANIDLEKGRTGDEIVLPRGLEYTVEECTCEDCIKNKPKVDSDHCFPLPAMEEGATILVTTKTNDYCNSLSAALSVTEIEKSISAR
From the text: To study the in vitro binding activity of the BCMA arm of the BCMA×CD3 bispecific antibody, HEK293T cell strain overexpressing human BCMA (HEK293T/huBCMA) and HEK293T cell strain overexpressing cynomolgus monkey BCMA (HEK293T/cynoBCMA) were used for antibody binding experiments at cellular level. Briefly, HEK293T/huBCMA cells and HEK293T/cynoBCMA cells were digested and resuspended with DMEM complete medium. The cell density of the two was adjusted to 1×10⁶ cells/mL, respectively. Cells were inoculated at 100 μL cells/well in a 96 well V-bottom plate (Corning, Cat#: 3894), followed by the addition of test antibodies at 100 μL/well, which is gradient diluted at 3 folds of the concentration with 2 folds of the final concentration. Cells were incubated at 4° C. for 1 hour in the dark. Afterwards, the cells were washed twice with 100 μL/well of pre-cooled PBS, centrifuged at 500 g for 5 min at 4° C., and followed by discarding the supernatant. 100 μL/well of fluorescent secondary antibody (Alexa Fluor 488-conjugated AffiniPure Goat Anti-Human IgG, Fcγ Fragment Specific, Jackson, Cat#: 109-545-06, 1:500 dilution) was added and incubated for 30 min at 4° C. in the dark. […] Finally, the cells were resuspended with 200 μL/well of pre-cooled PBS, and the fluorescence luminescence signal values were read by BD FACS CANTOII. […]

[5] = biological target: T2, human BCMA-Fc, Avitag recombinant …; experiment: SPR (Biacore T200), antigen amine-coupled on CM5, antibody as analyte, 1:1 fit
Method: as §2
(§4) A multi-cycle kinetic mode was set, and each cycle included the binding of PRO03178 as well as the regeneration of the chip. […]
(§5) The experimental results were analyzed by using Biacore T200 analysis software, and channel 1 was deducted as reference channel, and a 1:1 kinetic fit model was selected as the analysis model.

[6] = biological target: T3, human CD3e/g ECD-hFc recombinant protein; experiment: as above
Method: as §2, §4, §5

B1: BCMA x CD3 bispecific antibody PR003178 (bispecific antibody, human IgG1, lambda, L234A L235A)
heavy 1: not shown
light: QAVVTQEPSLTVSPGGTVTLTCRSSTGAVTTSNYANWVQQKPGQAPRGLIGGTNKRAPWTPARFSGSLLGDKAALTLLGAQPEDEAEYFCALWYSNLWVFGGGTKLTVLGQPKAAPSVTLFPPSSEELQANKATLVCLISDFYPGAVTVAWKADSSPVKAGVETTTPSKQSNNKYAASSYLSLTPEQWKSHRSYSCQVTHEGSTVEKTVAPTECS
heavy 2: EVQLVETGGGLIQPGGSLRLSCAASGFTVSDNYMTWVRQAPGKGLEWVSVIFSGGNTYYADSVKGRFTISRDNAKNTLYLQMNSLRAEDTALYYCARRNYDDTRGTDVFDIWGQGTMVTVSSGGGGSGGGGSGGGGSEVQLVETGGGLIQPGGSLRLSCAASGFTVSDNYMTWVRQAPGKGLEWVSVIFSGGNTYYADSVKGRFTISRDNAKNTLYLQMNSLRAEDTALYYCARRNYDDTRGTDVFDIWGQGTMVTVSSASEPKSSDKTHTCPPCPAPEAAGGPSVFLFPPKPKDTLMISRTPEVTCVVVDVSHEDPEVKFNWYVDGVEVHNAKTKPREEQYNSTYRVVSVLTVLHQDWLNGKEYKCKVSNKALPAPIEKTISKAKGQPREPQVCTLPPSREEMTKNQVSLSCAVKGFYPSDIAVEWESNGQPENNYKTTPPVLDSDGSFFLVSKLTVDKSRWQQGNVFSCSVMHEALHNHYTQKSLSLSPGK
notes: Three chains: HC1 (anti-CD3 heavy, knob, LALA), LC (anti-CD3 lambda light), HC2 (two tandem anti-BCMA VH of PR001046 joined by (G4S)3, then Fc hole, LALA); also called PRO03178
B1 was tested, and the “EC50 of the killing curve (LDH release, human PBMC effector cells, NCI-H929 target cells), fold against positive control 2” value [1] was 10 fold, the koff [2] was 0.000167 s⁻¹ and the kon [2] was 1.76e+06 M⁻¹ s⁻¹. The koff [3] was 0.0149 s⁻¹, the kon [3] was 588000 M⁻¹ s⁻¹ and the EC50 [4] was 0.921 nM. For the same binder, the Kd [5] was roughly 0.0949 nM and the Kd [6] was roughly 25.4 nM.

— patent US20220340673A1 (HARBOUR BIOMED SUZHOU, published 2022)
